PMC7226732 (2020)

B1: V5-Cx40 (wild type) [rat] / GFP-LC3B (expressed in HEK293A cells) [not stated (human cDNA cloned; a plasmid from Dr. Yoshimori also named)] (parent complex)
chain 1: MGDWSFLGEFLEEVHKHSTVIGKVWLTVLFIFRMLVLGTAAESSWGDEQADFRCDTIQPGCQNVCYDQAFPISHIRYWVLQIIFVSTPSLVYMGHAMHTVRMQEKQKLREAEKAKEAGGTGTYEYLAEKAELSCWKEVNGKIVLQGTLLNTYVCTILIRTAMEVAFMVGQYLLYGIFLDTLHVCRRSPCPHPVNCYVSRPTEKNVFIVFMMAVAGLSLFLSLAELYHLGWKKIRQRLAKSRQGDKHQLLGPSTSLVQGLTPPPDFNQCLKNSPDEKFFSDFSNNMGSRKNPDPLATEEVPNQEQIPEEGFIHTQYGQKPEQPSGASAGHRFPQGYHSDKRRLSKASSKARSDDLSV
chain 2: not shown

Variants of: B1
Experiment: co-immunoprecipitation (IP: V5) and Western blot quantification; HEK293A cell lysates; read off a plot

| Variant | ratio to parent |
| --- | --- |
| chain 1 W4A, chain 1 L7A | ~1.9 |
